Numbering of substitutions follows the chain as printed. Numbers in names are those of the source. Blank lines part the entries; values can stand above or below the binder they belong to.
Legend:
human MSLN antigen [1] = biological target: T1, human MSLN antigen (human, UniProt Q13421 296-580, limits assumed); experiment: Octet BLI; bsAb on anti-human Fc sensor, human MSLN as analyte, one concentration; design: Response: unit not given here
T1 construct: Soluble antigen for BLI; also called Mesothelin; MESO
T1 sequence (Q13421 other isoform, or with tags, fused parts or gaps limits assumed): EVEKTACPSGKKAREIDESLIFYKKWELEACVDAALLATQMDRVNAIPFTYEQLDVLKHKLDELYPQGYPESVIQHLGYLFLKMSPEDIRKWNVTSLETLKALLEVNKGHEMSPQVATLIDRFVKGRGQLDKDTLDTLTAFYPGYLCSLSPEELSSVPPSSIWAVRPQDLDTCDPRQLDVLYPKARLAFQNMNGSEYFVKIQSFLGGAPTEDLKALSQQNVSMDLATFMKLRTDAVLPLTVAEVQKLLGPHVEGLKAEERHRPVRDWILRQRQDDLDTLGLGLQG
Text: (§1) Variants of MESO-C were engineered by introducing point substitutions into the variable heavy region (VH) and the variable light region (VL) to generate 11 VH variants and 16 VL variants (sequences for which are depicted in FIG. 18 as H1.1-H1.13 and in FIG. 19 as L1.1-L1.18). An additional 4 VL variants were generated by combining useful point substitutions (sequences for which are depicted in FIG. 19 as L1.19-L1.22). WT and variant variable heavy regions were paired with WT and variant variable light regions to generate variant variable regions (Fvs) which were produced in the context of anti-MSLN×anti-CD3 bispecific antibodies. The bispecific antibodies were screened for MSLN binding affinity using Octet®, a BioLayer Interferometry (BLI)-based method. Experimental steps for Octet® generally include the following: Immobilization (capture of ligand to a biosensor); Association (dipping of ligand-coated biosensors into wells containing the analyte); and Dissociation (returning of biosensors to well containing buffer). In an initial screening, anti-human Fc sensors were used to capture the bispecific mAbs and dipped into human MSLN antigen (one concentration to screen large library). The resulting dissociation constant of illustrative variants (KD), association rate (kₐ), dissociation rate (kd), as well as sensorgram response are depicted in FIG. 20. In further screening of favorite variants identified in the initial screen (and combination variants), bispecific mAbs were dipped into multiple concentrations of human MSLN antigen, data for which are depicted in FIG. 21 (from various screens).

cyno MSLN = biological target: T2, cyno MSLN (Macaca fascicularis (cynomolgus)); experiment: Octet BLI; bsAb on anti-human Fc sensor, cyno MSLN as analyte, one concentration
T2 construct: soluble antigen for Octet; also called cynomolgus MSLN

human MSLN antigen [2] = biological target: T1, human MSLN antigen; experiment: Octet BLI; bsAb on anti-human Fc sensor, human MSLN as analyte, several concentrations
Text: as §1

B2: XENP32940 (bispecific antibody)
heavy: QVQLVQSGAEVKKPGASVKVSCKASGYTFTSYWMHWVRQAPGQGLEWMGWIHPNSDNTIYYEKFQGRVTMTVDKSISTAYMELSRLRSDDTAVYYCAIIITPVVPKFDYWGQGTLVTVSSASTKGPSVFPLAPSSKSTSGGTAALGCLVKDYFPEPVTVSWNSGALTSGVHTFPAVLQSSGLYSLSSVVTVPSSSLGTQTYICNVNHKPSDTKVDKKVEPKSCDKTHTCPPCPAPPVAGPSVFLFPPKPKDTLMISRTPEVTCVVVDVKHEDPEVKFNWYVDGVEVHNAKTKPREEEYNSTYRVVSVLTVLHQDWLNGKEYKCKVSNKALPAPIEKTISKAKGQPREPQVYTLPPSREEMTKNQVSLTCDVSGFYPSDIAVEWESDGQPENNYKTTPPVLDSDGSFFLYSKLTVDKSRWEQGDVFSCSVMHEALHNHYTQKSLSLSPGK
scFv-Fc: not shown
light: DIVMTQSPDSLAVSLGERATINCKASHDVGTSVAWYQQKPGQSPKLLIYWASTRHTGVPDRFTGSGSGTDFTLTISSLQAEDVAVYFCQQYSSFPLTFGAGTKLEIKRTVAAPSVFIFPPSDEQLKSGTASVVCLLNNFYPREAKVQWKVDNALQSGNSQESVTEQDSKDSTYSLSSTLTLSKADYEKHKVYACEVTHQGLSSPVTKSFNRGEC
notes: VH M50W, VL Y100F as printed; also called MESO-C H1.3_L1.14; copies: 1 + 1 + 1
Kd (human MSLN antigen [2]): 246 nM
Response (human MSLN antigen [2]): 0.136
koff (human MSLN antigen [2]): 0.0816 s⁻¹
kon (human MSLN antigen [2]): 332000 M⁻¹ s⁻¹

B4: XENP32555 (bispecific antibody)
Fab-Fc heavy chain (anti-MSLN VH): B2 heavy with W50M, D56G
scFv-Fc heavy chain (anti-CD3 H1.30_L1.47): not shown
light chain (anti-MSLN VL): B2 light with F94Y
notes: 1+1 Fab-scFv-Fc bsAb; VH D55G, VL WT (Kabat); also called MESO-C H1.6_L1
Kd (human MSLN antigen [1]): 0.684 nM
Response (human MSLN antigen [1]): 1.23
koff (human MSLN antigen [1]): 0.000375 s⁻¹
kon (human MSLN antigen [1]): 549000 M⁻¹ s⁻¹
Kd (cyno MSLN): 0.603 nM
Response (cyno MSLN): 1.11
koff (cyno MSLN): 0.000342 s⁻¹
kon (cyno MSLN): 566000 M⁻¹ s⁻¹

B5: XENP32558 (bispecific antibody)
Fab-Fc heavy chain (anti-MSLN VH): B2 heavy with W50M, K106R
scFv-Fc heavy chain (anti-CD3 H1.30_L1.47): not shown
light chain (anti-MSLN VL): B2 light with F94Y
notes: 1+1 Fab-scFv-Fc bsAb; VH K100bR, VL WT (Kabat); also called MESO-C H1.9_L1
Kd (human MSLN antigen [1]): 0.795 nM
Response (human MSLN antigen [1]): 1.17
koff (human MSLN antigen [1]): 0.000198 s⁻¹
kon (human MSLN antigen [1]): 249000 M⁻¹ s⁻¹
Kd (cyno MSLN): 0.7 nM
Response (cyno MSLN): 1.11
koff (cyno MSLN): 0.000166 s⁻¹
kon (cyno MSLN): 238000 M⁻¹ s⁻¹

B8: XENP32553 (bispecific antibody)
Fab-Fc heavy chain (anti-MSLN VH): B2 heavy with W50M, H52N
scFv-Fc heavy chain (anti-CD3 H1.30_L1.47): not shown
light chain (anti-MSLN VL): B2 light with F94Y
notes: 1+1 Fab-scFv-Fc bsAb; VH H52N, VL WT (Kabat); also called MESO-C H1.4_L1
Kd (human MSLN antigen [1]): 0.687 nM
Response (human MSLN antigen [1]): 1.16
koff (human MSLN antigen [1]): 0.00037 s⁻¹
kon (human MSLN antigen [1]): 539000 M⁻¹ s⁻¹
Kd (cyno MSLN): 0.585 nM
Response (cyno MSLN): 1.06
koff (cyno MSLN): 0.000337 s⁻¹
kon (cyno MSLN): 575000 M⁻¹ s⁻¹

B10: XENP32568 (bispecific antibody)
Fab-Fc heavy chain (anti-MSLN VH): B2 heavy with W50M
scFv-Fc heavy chain (anti-CD3 H1.30_L1.47): not shown
light chain (anti-MSLN VL): B2 light with F94T
notes: 1+1 Fab-scFv-Fc bsAb; VH WT, VL Y94T (Kabat); also called MESO-C H1_L1.10
Response (human MSLN antigen [1]): 0.107
Response (cyno MSLN): 0.0728

B11: XENP32557 (bispecific antibody)
Fab-Fc heavy chain (anti-MSLN VH): B2 heavy with W50M, T101S
scFv-Fc heavy chain (anti-CD3 H1.30_L1.47): not shown
light chain (anti-MSLN VL): B2 light with F94Y
notes: 1+1 Fab-scFv-Fc bsAb; VH T97S, VL WT (Kabat); also called MESO-C H1.8_L1
Kd (human MSLN antigen [1]): 0.721 nM
Response (human MSLN antigen [1]): 1.15
koff (human MSLN antigen [1]): 0.000374 s⁻¹
kon (human MSLN antigen [1]): 519000 M⁻¹ s⁻¹
Kd (cyno MSLN): 0.62 nM
Response (cyno MSLN): 1.09
koff (cyno MSLN): 0.000321 s⁻¹
kon (cyno MSLN): 518000 M⁻¹ s⁻¹

The remaining binders from weak to strong by Kd (human MSLN antigen [1]), led by results:

Kd (human MSLN antigen [1]): 0.601 nM
Response (human MSLN antigen [1]): 1.02
koff (human MSLN antigen [1]): 0.000314 s⁻¹
kon (human MSLN antigen [1]): 522000 M⁻¹ s⁻¹
Kd (cyno MSLN): 0.254 nM
Response (cyno MSLN): 0.891
koff (cyno MSLN): 0.000146 s⁻¹
kon (cyno MSLN): 576000 M⁻¹ s⁻¹
B7: XENP32550 (bispecific antibody)
Fab-Fc heavy chain (anti-MSLN VH): B2 heavy with S31G, W50M
scFv-Fc heavy chain (anti-CD3 H1.30_L1.47): not shown
light chain (anti-MSLN VL): B2 light with F94Y
notes: 1+1 Fab-scFv-Fc bsAb; VH S31G, VL WT (Kabat); also called MESO-C H1.1_L1

Kd (human MSLN antigen [1]): 0.286 nM
Response (human MSLN antigen [1]): 1.11
koff (human MSLN antigen [1]): 0.000169 s⁻¹
kon (human MSLN antigen [1]): 590000 M⁻¹ s⁻¹
Kd (cyno MSLN): 0.255 nM
Response (cyno MSLN): 1
koff (cyno MSLN): 0.000151 s⁻¹
kon (cyno MSLN): 592000 M⁻¹ s⁻¹
B6: XENP32565 (bispecific antibody)
Fab-Fc heavy chain (anti-MSLN VH): B2 heavy with W50M
scFv-Fc heavy chain (anti-CD3 H1.30_L1.47): not shown
light chain (anti-MSLN VL): B2 light with H55E, F94Y
notes: 1+1 Fab-scFv-Fc bsAb; VH WT, VL H55E (Kabat); also called MESO-C H1_L1.7

Kd (human MSLN antigen [1]): 0.18 nM
Response (human MSLN antigen [1]): 1.05
koff (human MSLN antigen [1]): 0.000113 s⁻¹
kon (human MSLN antigen [1]): 627000 M⁻¹ s⁻¹
Kd (cyno MSLN): 0.163 nM
Response (cyno MSLN): 0.941
koff (cyno MSLN): 0.0001 s⁻¹
kon (cyno MSLN): 616000 M⁻¹ s⁻¹
B3: XENP32566 (bispecific antibody)
Fab-Fc heavy chain (anti-MSLN VH): B2 heavy with W50M
scFv-Fc heavy chain (anti-CD3 H1.30_L1.47): not shown
light chain (anti-MSLN VL): B2 light with T56S, F94Y
notes: 1+1 Fab-scFv-Fc bsAb; VH WT, VL T56S (Kabat); also called MESO-C H1_L1.8

Kd (human MSLN antigen [1]): 0.135 nM
Response (human MSLN antigen [1]): 0.978
koff (human MSLN antigen [1]): 9.35e-05 s⁻¹
kon (human MSLN antigen [1]): 693000 M⁻¹ s⁻¹
Kd (cyno MSLN): 0.189 nM
Response (cyno MSLN): 0.867
koff (cyno MSLN): 0.000125 s⁻¹
kon (cyno MSLN): 660000 M⁻¹ s⁻¹
B9: XENP32569 (bispecific antibody)
heavy: B2 heavy with W50M, N54Q
scFv-Fc: not shown
light: B2 light with D28S, F94Y
notes: VH N53Q, VL D28S (Kabat); also called MESO-C H1.5_L1.3; copies: 1 + 1 + 1

Kd (human MSLN antigen [1]): 0.0861 nM
Response (human MSLN antigen [1]): 0.952
koff (human MSLN antigen [1]): 5.68e-05 s⁻¹
kon (human MSLN antigen [1]): 660000 M⁻¹ s⁻¹
Kd (cyno MSLN): 0.0297 nM
Response (cyno MSLN): 0.849
koff (cyno MSLN): 2.01e-05 s⁻¹
kon (cyno MSLN): 676000 M⁻¹ s⁻¹
B1: XENP32564 (bispecific antibody)
Fab-Fc heavy chain (anti-MSLN VH): B2 heavy with W50M
scFv-Fc heavy chain (anti-CD3 H1.30_L1.47): not shown
light chain (anti-MSLN VL): B2 light with V33L, F94Y
notes: 1+1 Fab-scFv-Fc bsAb; VH WT, VL V33L (Kabat); also called MESO-C H1_L1.6
